Test results reported in patent US20160237157A1 (published 2016).

T1: human FGFR4 (soluble, Part B: SPR and FGFR4 ELISA) (human, UniProt P22455 22-369)
T1 construct: Injected over immobilized IgG in SPR (0.48-1000 nM) and immobilized in the FGFR4 ELISA
T1 sequence: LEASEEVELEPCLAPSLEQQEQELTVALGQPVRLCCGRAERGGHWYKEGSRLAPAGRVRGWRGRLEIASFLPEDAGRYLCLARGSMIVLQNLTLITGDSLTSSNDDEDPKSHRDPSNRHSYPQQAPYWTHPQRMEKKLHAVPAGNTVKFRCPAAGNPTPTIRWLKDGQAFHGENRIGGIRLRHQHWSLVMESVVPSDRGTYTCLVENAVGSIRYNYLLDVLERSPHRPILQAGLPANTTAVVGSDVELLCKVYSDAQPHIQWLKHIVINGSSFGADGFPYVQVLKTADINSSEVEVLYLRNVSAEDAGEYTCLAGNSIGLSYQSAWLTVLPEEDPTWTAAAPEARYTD

B1: hLD1.vA (antibody, V domains shown)
VH: EVQLVESGGGLVQPGGSLRLSCAASGYTFTNHWMNWVRQAPGKGLEWVGMIHPSDSETTLDQKFKDRFTISADTSKNTAYLQMNSLRAEDTAVYYCTRGDISLFDYWGQGTLVTVSS
VL: DIQMTQSPSSLSASVGDRVTITCRTSQDISNFLNWYQQKPGKAPKLLIYYTSRLHSGVPSRFSGSGSGTDFTLTISSLQPEDFATYYCQQGNALPYTFGQGTKVEIKR
B2: chimeric LD1 (chLD1) (antibody, V domains shown)
VH: EVQLQQPGAVLVRPGTSVKLSCKASGYTFTNHWMNWVKQRPGQGLEWIGMIHPSDSETTLDQKFKDKATLTVDKSSSTAYMQLNRPTSEDSAVYYCTRGDISLFDYWGQGTTVTVSS
VL: DIQMTQTTSSLSASLGDRVTITCRTSQDISNFLNWYQQKPDGTFKILISYTSRLHSGVPSRFSGSGSGTDYSLTISTLEQEDFATYFCQQGNALPYTFGGGTKLEIE

Legend:
[1] = target: T1, human FGFR4 (soluble, Part B: SPR and …); assay: surface plasmon resonance, compared with chLD1
[2] = target: human FGFR4 expressed at the cell surface (human, UniProt P22455 22-802); assay: cell-based or functional assay

Binder	fold decrease of affinity against chLD1 [1]	CYP7α1 expression in HEP3B cells without added FGF19, fold increase [2]	CYP7α1 expression in HUH7 cells in the absence of FGF19, fold increase [2]	CYP7α1 expression in HUH7 cells in the presence of FGF19, fold increase [2]
B1	~5 fold	–	–	–
B2	–	2 fold	3.5 fold	2.9 fold
